Measurements reported in the DeepSol protein solubility set.

assay: soluble on expression in E. coli; label from the status in PepcDB or PDB records

Soluble on expression in E. coli, soluble:
SNAMKLALITDTSAYLPEAIENHEDVYVLDIPIIIDGKTYIEGQNLTLDQYYDKLAASKELPKTSQPSLAELDDLLCQLEKEGYTHVLGLFIAAGISGFWQNIQFLIEEHPNLTIAFPDTKITSAPQGNLVRNALMCSREGMDFDVIVNKIQSQIEKIEGFIVVNDLNHLVKGGRLSNGSAIIGNLLSIKPVLHFNEEGKIVVYEKVRTEKKALKRLAEIVKEMTADGEYDIAIIHSRAQDKAEQLYNLLAKAGLKDDLEIVSFGGVIATHLGEGAVAFGITPKN
GSMEPGPDGPAASGPAAIREGWFRETCSLWPGQALSLQVEQLLHHRRSRYQDILVFRSKTYGNVLVLDGVIQCTERDEFSYQEMIANLPLCSHPNPRKVLIIGGGDGGVLREVVKHPSVESVVQCEIDEDVIQVSKKFLPGMAIGYSSSKLTLHVGDGFEFMKQNQDAFDVIITDSSDPMGPAESLFKESYYQLMKTALKEDGVLCCQGECQWLHLDLIKEMRQFCQSLFPVVAYAYCTIPTYPSGQIGFMLCSKNPSTNFQEPVQPLTQQQVAQMQLKYYNSDVHRAAFVLPEFARKALNDVS
GPGSMTTSASLFKKFTLENVAQIASSSHKEQKEVREELAEQYPALEAYWEEILPKKSDIFIIRCQGQVHCITLVSSQPEVLFFNHHGGPYLPHLKLLHKYPFMLTRHQVDIGGCRYVISGANVMCQGLTSAGGIVADGTEEGEVVAVYVEGKEHAVAVGTMLMSSDEIKEKNKGPCIENIHHLGDGLWMNPVLSASHISV
MSLKILILGGTRFLGRAFVEKALNRGYEVTLFNRGTNKEIFPEVEQLIGDRNGDVSSLENRKWDVVVDTCGFSPHHIRNVGEVLKDNIEHYIFISSLSVYKDWIPHHIKEDYILQPEPTAEQIKAVENGEVSPYEYYGALKVLCEKEAEKYWPGRVLHVRAGLLSGMFDYTDRLPYWIGRVAKGGEVLVPGRKDRPVQIVDIKDVANWGLNMAENNKAGIFNVTGPNYDLTMEELLNTCKKVTNSDAEFVWIEESFMNEHKVQPWTEMPLWIPETFSLEGETKPWKGGFSISINSAIKAGLTFRRLEDTVMDVYVWMKSIEEWELKAGISGEREKELLEKWYQEGHHHHHH
MITTPLVHVASVEKGRSYEDFQKVYNAIALKLREDDEYDNYIGYGPVLVRLAWHISGTWDKHDNTGGSYGGTYRFKKEFNDPSNAGLQNGFKFLEPIHKEFPWISSGDLFSLGGVTAVQEMQGPKIPWRCGRVDTPEDTTPDNGRLPDADKDAGYVRTFFQRLNMNDREVVALMGAHALGKTHLKNSGYEGPWGAANNVFTNEFYLNLLNEDWKLEKNDANNEQWDSKSGYMMLPTDYSLIQDPKYLSIVKEYANDQDKFFKDFSKAFEKLLENGITFPKDAPSPFIFKTLEEQGL
MHFKDLGLHDYTLKNLMYENNCCKFYDAVDENNISYVLKFVPSDVTSEGDTFPFVDRFQVKEGVFLVYSSNDFGKEGTDYFTYTGSGGNEVHISGTSSEAGIKPQFIETCHPKHLKRGTKEQEDINSSTSKKSAVINNFSGEKTPNPRPQSSNISERETYVGILNVKCKNKNSSKIRSEKLVSSVIETKHTPGLASILSKEGTTYPNNADGKHISIVNPSSKIYHSSHKQIVKTPIPKSGLSPIERCPFNGQNIKCYSPRPLDHESPQRDFNNNFQLRILKSSVLQRRQSTQNS

Soluble on expression in E. coli, not soluble:
MGSDKIHHHHHHMTCRRITFVPNFMIRDARVLRAGFVPREVEHRDAEVNHLSSVLEPITNGEPADTAIVTGPSGTGKTCISQFVTERLREEVLNVEATYVNCWRNYTRFRTLYQILDDFGETIDIHRQSTPHDELIDRLQQYDGPRTVIILDEVDQLEDPGIIYDLHSLPHFAVICIANKEEDLFSRVDDRLVSRLRSSEHVRMDKYHDEQLHDILAARVKGGLDQDVITTNQLDRIADAAAGDARLAIGILRTAASKADRESRERITDDILLNAAEDARAQIKQKNLDSLIPHQRLVYDVVREHGPLGPSEIYDHYKRKVDDPRTKRTIRTYLSKMTQYNVLEAEGTSRDREYSLVDSTAPSVTQ
MNGAAQADLWRLVVLNTYGGVYMDIDATLVWPLDKLLGDSQELYIRIKNNTEITNYFIATAPNNPDLQATIEQVVYNVNHYEPSMGVYHSTGPTVLNNILSAKAVIHTQDRKYVCIQGTFTNEHFQYIDKPRGKWLEHHHHHH
SLNIKDEHIDSVCSLLDQLVGNVSFKNLFTGYGLFHKEETMFAIWQNKKLYLRGEGVLAIQLTKLGCEPFTTNELNKRFVLSQYYALSDQILRSNRLCRKLIILSIKQILEQKLECTLRKLNRLKDLPNLTIKHERALIKVGITNVAMLREIGAENALVELKKSGSGATLDFYWKLVCALQNKNSQMLSQAEKERLLKKLNEVWRKNGLKGYRKLDDE
MGHHHHHHSHMKNYYYFLGQGLTLSPRLECSSTISAHCNLHLLGSSNSPVAASPVAGTTGTCHHDWLIFVFLVETGFHHIGQTGLEFLTSGDPPTLASKSAGITGVSHCAWPTFLLNDMRHSFNKNLVIIFYVPAIS
MGSDKIHHHHHHMKELRIDPITNDVVIFATDRLKRPLDTADIPNEDEETNEYDEECPFCKGNEAHATDALFEIDSEEGWLVKSVYNKFPIIDDMARDVYGVHEVMIESDKHNRSFYNMSQKEFEDVFFMYRNRFRDLSKDDKVEYVSIFKNFLRKAGASLMHPHAQILSMSFIPPEITNELLVSKEYYDSNKSSLYDDLIENEISLDRRVVYNGEAFLVLIPYATKYSGEVRIIFKDKIEFGELNDNNIQELSTIFEKLFKKLYNINGYMPFNLCIHTHPTKIETKSYFNVHMHIIPRKYNFGGFELGTNMYVSSMSPEDLTKKLKID
MTLPTTIYSFPAYLSRFSSTDKPVKLKFHQYARATLLSNRGRDHNCDGRRTVEIHKLDLSDWQAFNKLATRCNAYDGITMNGDNSFGWNHEATLDNIHAQKYNKAYAGARLTAELKYLLQDVESFEPNSKYTIHEVVLGPGYGTPDYTGQTIGYVVTLPAQMPNCWSSELPTIDLYIDQLRTVTGVSNALGFIIAALLNAYSDLPHDLKIGLRSLSSSAAIYSGLGFERVPQERDISCARMYLTPANHPDLWTQENGEWIYLRN
MDEQISKSQKKRDAHYLQDIGIKFIDLSASKLDSLPLPDNLRQAIVDARSIKSHGAKRRQAQLIGKLMRAADFEAILAAYEKILEEESSVTASFHEIELWRDRLLQDGKDALTEFIDAYQPEDVQQLRQLIKKALDDQMKEKNTGAAKALFRYLRSLIK
MGSDKIHHHHHHMIVDNDLISIQEARILAENAGRAQRVLATFSQEQLDEIVEAVAEAVGAQAQALADMAYEETDYGNPHDKAVKNRFVCTQVREQLRGMRCVGVIGRDEHARTMDIGVPVGVIAALCPATSPVSTTICKTLIAVKSGNAVVFSPHPRAARSIAAALDIMIDAARAHGLPEGCLSYMSTVTKSGTAELMNHPATSLVMLSGVPGMIGLARCSGKPVIYGGTGNGPAFVERSADIRRAVADIMLSKTFDNGIAPSAEQSIVVDSCIEREVRHALQECGAYFMTDEESLRLAELLFCADGRHKAGMVGVSAPVLARRAGISVPDNVRLLVAERKYVSEADPYSRELLSPVLAYYVEDDWMHACEKCIELLLHERNAHTLVIHSSNEEVILQFALKKPVGRLLVNTPATFGGMGVTTNLFPSMTLGSGSAGRGITADNVSPMNLIYIRKVGYGVRQYTGAQDAAGYGSRVCAAQGVMAPHDSDSRKMQALHRILMEAIGVMDGAAHR
MGSDKIHHHHHHMIPIVDSRIGAYLDGLLPEADPVVAAMEQIARERNIPIVDRQTGRLLYLLARIKQPQLVVVPGDGLGCASWWFARAISISSRVVMIDPDRDNVEHARRMLHDNGLIDRVELQVGDPLGIAAGQRDIDILFMDCDVFNGADVLERMNRCLAKNALLIAVNALRRGSVAESHEDPETAALREFNHHLSRRRDFFTTIVPVGNGVLLGYRLS
MPPKKNVVEEKPALIGRLGTNLKVGILGLPNVGKSTFFNVLTKSEAQAENFPFCTIDPNESRVAVQDDRFDWLVNHYKPASKVPAFLNVTDIAGLVKGASEGQGLGNAFLSHVSACDALFHLCRAFDDDDVTHVEGEVDPVRDLEIISNELFAKDLQFIDGPLDKVEKLFTRANDKTKKIEYDTLVRVKKCLEEKKPVRQELWNEKEIEILNKHLFLTAKPIVYLVNLSEKDYIRKKNKWLPKIKAWIDTNDAGAVLIPFSGAFELKLLDMPEDERQKYLKEQGVTSNLDKIVHTGYKALQLEYFFTSGEDEVKAWTIQVGTPAPKAAGRIHTDFEKGFIMAEVMKVADLIELGDEAKCKAGGKYRQQGKTYIVQDGDVIFFKFNAGAGLQAKKK
